Changes are numbered by the printed parent chain. Numbers in names are those of the source. Values belong to the binder of their own block, whether it stands above or below them.
Columns and labels:
Assay in all cases: SEC
[1] = biological target: (CENP-A/H4)2 heterotetramer (human, UniProt P49450 1-140; P62805 1-103)
[2] = biological target: CENP-A^H115A/L128A/H4 heterodimer (human, UniProt P49450 1-140; P62805 1-103, H115A | L128A)
[3] = biological target: (CENP-A^S68Q/H4)2 (human, UniProt P49450 1-140; P62805 1-103, S68Q)
Sequence of (CENP-A^S68Q/H4)2 (P49450 whole entry S68Q, one chain of several): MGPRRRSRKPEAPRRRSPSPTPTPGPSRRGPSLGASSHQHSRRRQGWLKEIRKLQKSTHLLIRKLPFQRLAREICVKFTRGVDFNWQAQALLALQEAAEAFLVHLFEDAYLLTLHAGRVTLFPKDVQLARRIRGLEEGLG

Sequence of (CENP-A/H4)2 heterotetramer (P49450 whole entry, one chain of several): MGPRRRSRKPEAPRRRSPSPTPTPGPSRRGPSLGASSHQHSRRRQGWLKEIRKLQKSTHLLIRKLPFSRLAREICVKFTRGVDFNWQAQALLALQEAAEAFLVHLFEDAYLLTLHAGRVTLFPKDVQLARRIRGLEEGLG
Sequence of CENP-A^H115A/L128A/H4 heterodimer (P49450 whole entry H115A/L128A, one chain of several): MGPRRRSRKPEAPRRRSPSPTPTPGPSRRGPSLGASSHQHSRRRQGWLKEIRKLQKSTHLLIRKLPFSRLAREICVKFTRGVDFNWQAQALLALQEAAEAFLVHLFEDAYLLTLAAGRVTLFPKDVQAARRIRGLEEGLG

binding result [1]: binds
B1: MBP-HJURP^1–62 (domain or fragment)
chain: MLGTLRAMEGEDVEDDQLLQKLRASRRRFQRRMQRLIEKYNQPFEDTPVVQMATLTYETPQG

binding result [2]: binds
binding result [1]: binds
binding result [3]: binds
B2: MBP-HJURP^1–80 (domain or fragment)
chain: MLGTLRAMEGEDVEDDQLLQKLRASRRRFQRRMQRLIEKYNQPFEDTPVVQMATLTYETPQGLRIWGGRLIKERNEGEIQ

binding result [1]: binds
B3: MBP-HJURP^1–80/W66A (domain or fragment)
chain: B2 chain with W66A

From PMC3353549 (Developmental Cell, 2012)
